These results are taken from publication PMC5858142, “A novel cold-adapted esterase from Enterobacter cloacae: Characterization and improvement of its activity and thermostability via the site of Tyr193Cys” (Microbial Cell Factories, 2018).

Usually Km stands for the concentration of substrate that gives half-maximal velocity. The term kcat denotes the maximal rate divided by the concentration of active sites. In general, kcat/Km refers to the turnover number divided by the Michaelis constant.

One data set has as its system Lip. Conditions: optimal pH 9.0, 40 °C; substrate not named, taken as pNPA (best substrate).
Data set [1] has as its system CC(=O)Oc1ccc([N+](=O)[O-])cc1. In words: purified protein. As to conditions: optimal pH 8.5, 40 °C, substrate not named, taken as pNPA (best substrate).

Take `CC(=O)Oc1ccc([N+](=O)[O-])cc1` [C2, p-nitrophenyl acetate]: the Km in the data set with Lip is 363 ± 30 µM.
On to Lip (Enterobacter cloacae), for which, in data set [1], the Km amounted to 643 ± 30 µM, the kcat was 9.8 ± 0.09 s⁻¹ and the kcat/Km stood at 15200 ± 210 M⁻¹ s⁻¹.
